# Experimental data reported in paper PMC8794819, “Tuning protein half-life in mouse using sequence-defined biopolymers functionalized with lipids” (Proceedings of the National Academy of Sciences of the …, 2022).
# Non-standard residues stand in square brackets, D forms with d. alkynyl palmitic acid = FA, attached to pAzF by click chemistry; Phe(4-N3) = [N-]=[N+]=Nc1ccc(C[C@H](N)C(=O)O)cc1
# Columns and labels:
# mouse serum albumin = molecular target: T1, mouse serum albumin (mouse, UniProt P07724 25-608); assay: SPR; Biacore T200; HSA or MSA immobilised by amine coupling on CM5 chip (∼1,300 to 12,800 RU); ELP-GFP derivatives injected, twofold dilution series ∼0.28 to 60 µM; PBS running buffer; 60-s association, 600-s dissociation; steady-state affinity binding model; mean of four to eight independent measurements; conditions: both partners purified
# T1 construct: serum albumin, mouse, from mouse serum; also called MSA; albumin from mouse serum; source: bought: Sigma, catalog #A3139 (albumin from mouse serum)
# human serum albumin = molecular target: T2, human serum albumin (human, UniProt P02768 25-609); assay: as above; conditions: both partners purified
# T2 construct: serum albumin, human; also called HSA; source: bought: Sigma, catalog #A3782
# T1 sequence (P07724 25-608): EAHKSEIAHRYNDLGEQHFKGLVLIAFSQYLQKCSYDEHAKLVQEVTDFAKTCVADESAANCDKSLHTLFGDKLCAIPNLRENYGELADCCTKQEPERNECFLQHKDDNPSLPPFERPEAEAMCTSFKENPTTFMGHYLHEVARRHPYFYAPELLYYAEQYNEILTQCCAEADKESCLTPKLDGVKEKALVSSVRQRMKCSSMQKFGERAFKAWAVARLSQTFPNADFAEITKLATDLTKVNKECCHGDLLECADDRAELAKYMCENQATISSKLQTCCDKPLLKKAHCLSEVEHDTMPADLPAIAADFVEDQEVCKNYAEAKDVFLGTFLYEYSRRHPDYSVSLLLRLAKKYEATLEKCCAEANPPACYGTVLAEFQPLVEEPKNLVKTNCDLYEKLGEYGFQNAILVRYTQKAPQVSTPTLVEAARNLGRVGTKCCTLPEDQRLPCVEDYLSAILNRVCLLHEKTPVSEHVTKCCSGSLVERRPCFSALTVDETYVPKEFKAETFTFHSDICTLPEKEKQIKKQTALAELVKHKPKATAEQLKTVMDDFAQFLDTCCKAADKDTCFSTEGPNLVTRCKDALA
binder,measurement,setting,value
"ELP(10FA)-GFP, ISAz treated (other, not fully specified (C-terminus); also: pAzF coupled to alkynyl palmitic acid by click (triazole)) VPGAGVPG[Phe(4-N3)](alkynyl palmitic acid)GVPGGGVPGAGVPG[Phe(4-N3)](alkynyl palmitic acid)GVPGGGVPGAGVPG[Phe(4-N3)](alkynyl palmitic acid)GVPGGGVPGAGVPG[Phe(4-N3)](alkynyl palmitic acid)GVPGGGVPGAGVPG[Phe(4-N3)](alkynyl palmitic acid)GVPGGGVPGAGVPG[Phe(4-N3)](alkynyl palmitic acid)GVPGGGVPGAGVPG[Phe(4-N3)](alkynyl palmitic acid)GVPGGGVPGAGVPG[Phe(4-N3)](alkynyl palmitic acid)GVPGGGVPGAGVPG[Phe(4-N3)](alkynyl palmitic acid)GVPGGGVPGAGVPG[Phe(4-N3)](alkynyl palmitic acid)GVPGGG",Kd,mouse serum albumin,2220 nM
same,Kd,human serum albumin,1640 nM
